The record followed here is article PMC11602162.

This data set addresses N-NTD (SARS-CoV-2 (Wuhan-Hu-1)) (UniProt P0DTC9). Description: DSF. The settings on record: 10 mM Tris-HCl pH 7.4, 150 mM NaCl, 1 mM MgCl2, BLI with 0.05% Tween-20.

For the sequence TCGGACATCGGAATGTCTGA [A58-20 T6-to-A], the binding signal is -0.5 C (Tm shift).
